B1: UNC93B1-GFP, wild type [modified: N-glycosylated at N251 and N272; N-glycosylated at N251 and N272] [not stated] / TLR9-myc (in UNC93B1 KO iBMDMs) [not stated] (parent)
chain 1: MEVEPPLYPVAGAAGPQGDEDRHGVPDGPEAPLDELVGAYPNYNEEEEERRYYRRKRLGVVKNVLAASTGVTLTYGVYLGLLQMQLILHYDETYREVKYGNMGLPDIDSKMLMGINVTPIAALLYTPVLIRFFGTKWMMFLAVGIYALFVSTNYWERYYTLVPSAVALGMAIVPLWASMGNYITRMSQKYYEYSHYKEQDEQGPQQRPPRGSHAPYLLVFQAIFYSFFHLSFACAQLPMIYFLNNYLYDLNHTLINVQSCGTKSQGILNGFNKTVLRTLPRSKNLIVVESVLMAVAFLAMLMVLGLCGAAYRPTEEIDLRSVGWGNIFQLPFKHVRDFRLRHLVPFFIYSGFEVLFACTGFALGYGVCSMGLERLAYLLIAYSLGASASSVLGLLGLWLPRSVPLVAGAGLHLLLTLSLFFWAPAPRVLQHSWIFYFVAALWGVGSALNKTGLSTLLGILYEDKERQDFIFTIYHWWQAVAIFVVYLGSSLPMKAKLAVLLVTLVAAAASYLWMEQKLQQGLVPRQPRIPKPQHKVRGYRYLEEDNSDESDMEGEQGQGDCAEDEAPQAGPLGAEPAGPCRKPCPYEQALGGDGPEEQ
chain 2: LGTLPAFLPCELKPHGLVDCNWLFLKSVPRFSAAASCSNITRLSLISNRIHHLHNSDFVHLSNLRQLNLKWNCPPTGLSPLHFSCHMTIEPRTFLAMRTLEELNLSYNGITTVPRLPSSLVNLSLSHTNILVLDANSLAGLYSLRVLFMDGNCYYKNPCTGAVKVTPGALLGLSNLTHLSLKYNNLTKVPRQLPPSLEYLLVSYNLIVKLGPEDLANLTSLRVLDVGGNCRRCDHAPNPCIECGQKSLHLHPETFHHLSHLEGLVLKDSSLHTLNSSWFQGLVNLSVLDLSENFLYESITHTNAFQNLTRLRKLNLSFNYRKKVSFARLHLASSFKNLVSLQELNMNGIFFRLLNKYTLRWLADLPKLHTLHLQMNFINQAQLSIFGTFRALRFVDLSDNRISGPSTLSEATPEEADDAEQEELLSADPHPAPLSTPASKNFMDRCKNFKFTMDLSRNNLVTIKPEMFVNLSRLQCLSLSHNSIAQAVNGSQFLPLTNLQVLDLSHNKLDLYHWKSFSELPQLQALDLSYNSQPFSMKGIGHNFSFVTHLSMLQSLSLAHNDIHTRVSSHLNSNSVRFLDFSGNGMGRMWDEGGLYLHFFQGLSGLLKLDLSQNNLHILRPQNLDNLPKSLKLLSLRDNYLSFFNWTSLSFLPNLEVLDLAGNQLKALTNGTLPNGTLLQKLDVSSNSIVSVVPAFFALAVELKEVNLSHNILKTVDRSWFGPIVMNLTVLDVRSNPLHCACGAAFVDLLLEVQTKVPGLANGVKCGSPGQLQGRSIFAQDLRLCLDEVLSWDCFGLSLLAVAVGMVVPILHHLCGWDVWYCFHLCLAWLPLLARSRRSAQTLPYDAFVVFDKAQSAVADWVYNELRVRLEERRGRRALRLCLEDRDWLPGQTLFENLWASIYGSRKTLFVLAHTDRVSGLLRTSFLLAQQRLLEDRKDVVVLVILRPDAHRSRYVRLRQRLCRQSVLFWPQQPNGQGGFWAQLSTALTRDNRHFYNQNFCRGPTAE

Variants of: B1
Test: co-immunoprecipitation from isolated phagosomes, band densitometry
Settings: with TLR9-myc (in UNC93B1 KO iBMDMs), means ± SD of two independent experiments, parent: 1, read off a plot

ratio to parent [A.U]	Variant
1.3	chain 1 MEVEPPLYPVAGAAGPQGDEDRHGVPDGPEAPLDELVGAYPNYNEEEEERRYYRRKRLGVVKNVLAASTGVTLTYGVYLGLLQMQLILHYDETYREVKYGNMGLPDIDSKMLMGINVTPIAALLYTPVLIRFFGTKWMMFLAVGIYALFVSTNYWERYYTLVPSAVALGMAIVPLWASMGNYITRMSQKYYEYSHYKEQDEQGPQQRPPRGSHAPYLLVFQAIFYSFFHLSFACAQLPMIYFLNNYLYDLQHTLINVQSCGTKSQGILNGFNKTVLRTLPRSKNLIVVESVLMAVAFLAMLMVLGLCGAAYRPTEEIDLRSVGWGNIFQLPFKHVRDFRLRHLVPFFIYSGFEVLFACTGFALGYGVCSMGLERLAYLLIAYSLGASASSVLGLLGLWLPRSVPLVAGAGLHLLLTLSLFFWAPAPRVLQHSWIFYFVAALWGVGSALNKTGLSTLLGILYEDKERQDFIFTIYHWWQAVAIFVVYLGSSLPMKAKLAVLLVTLVAAAASYLWMEQKLQQGLVPRQPRIPKPQHKVRGYRYLEEDNSDESDMEGEQGQGDCAEDEAPQAGPLGAEPAGPCRKPCPYEQALGGDGPEEQ [chain 1 N251Q]
1.1	chain 1 MEVEPPLYPVAGAAGPQGDEDRHGVPDGPEAPLDELVGAYPNYNEEEEERRYYRRKRLGVVKNVLAASTGVTLTYGVYLGLLQMQLILHYDETYREVKYGNMGLPDIDSKMLMGINVTPIAALLYTPVLIRFFGTKWMMFLAVGIYALFVSTNYWERYYTLVPSAVALGMAIVPLWASMGNYITRMSQKYYEYSHYKEQDEQGPQQRPPRGSHAPYLLVFQAIFYSFFHLSFACAQLPMIYFLNNYLYDLNHTLINVQSCGTKSQGILNGFQKTVLRTLPRSKNLIVVESVLMAVAFLAMLMVLGLCGAAYRPTEEIDLRSVGWGNIFQLPFKHVRDFRLRHLVPFFIYSGFEVLFACTGFALGYGVCSMGLERLAYLLIAYSLGASASSVLGLLGLWLPRSVPLVAGAGLHLLLTLSLFFWAPAPRVLQHSWIFYFVAALWGVGSALNKTGLSTLLGILYEDKERQDFIFTIYHWWQAVAIFVVYLGSSLPMKAKLAVLLVTLVAAAASYLWMEQKLQQGLVPRQPRIPKPQHKVRGYRYLEEDNSDESDMEGEQGQGDCAEDEAPQAGPLGAEPAGPCRKPCPYEQALGGDGPEEQ [chain 1 N272Q]
